Experimental data: article PMC9482650, “Quantitative fragmentomics allow affinity mapping of interactomes” (Nature Communications, 2022)

T1: PTPN13_1, Q12923
T1 sequence (Q12923 1088-1188, limits assumed, looked up): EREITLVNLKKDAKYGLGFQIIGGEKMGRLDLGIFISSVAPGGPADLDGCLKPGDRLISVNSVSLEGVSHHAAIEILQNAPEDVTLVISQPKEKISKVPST

T2: PDZRN3_1, Q9UPQ7
T2 sequence (Q9UPQ7 244-349, limits assumed, looked up): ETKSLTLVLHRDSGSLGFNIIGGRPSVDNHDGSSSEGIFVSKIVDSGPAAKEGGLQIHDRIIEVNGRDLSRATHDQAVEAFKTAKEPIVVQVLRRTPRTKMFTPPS

T3: PARD3B_1, Q8TEW8
T3 sequence (Q8TEW8 196-299, limits assumed, looked up): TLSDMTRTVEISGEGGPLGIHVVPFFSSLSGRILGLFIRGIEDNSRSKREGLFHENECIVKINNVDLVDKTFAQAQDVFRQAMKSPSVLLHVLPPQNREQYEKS

T4: TIAM2, Q8IVF5
T4 sequence (Q8IVF5 885-986, limits assumed, looked up): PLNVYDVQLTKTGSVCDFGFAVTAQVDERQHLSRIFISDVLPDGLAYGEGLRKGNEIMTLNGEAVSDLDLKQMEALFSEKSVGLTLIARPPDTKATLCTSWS

T5: DLG3_3, Q92796
T5 sequence (Q92796 374-475, limits assumed, looked up): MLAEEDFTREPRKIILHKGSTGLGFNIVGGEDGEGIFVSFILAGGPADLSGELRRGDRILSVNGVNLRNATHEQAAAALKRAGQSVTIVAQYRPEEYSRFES

T6: MPDZ_10, O75970
T6 sequence (O75970 1624-1722, limits assumed, looked up): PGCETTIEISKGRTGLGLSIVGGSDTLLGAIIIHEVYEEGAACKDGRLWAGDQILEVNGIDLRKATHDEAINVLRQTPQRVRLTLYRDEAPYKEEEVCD

T7: NHERF3_1, Q5T2W1
T7 sequence (Q5T2W1 4-100, limits assumed, looked up): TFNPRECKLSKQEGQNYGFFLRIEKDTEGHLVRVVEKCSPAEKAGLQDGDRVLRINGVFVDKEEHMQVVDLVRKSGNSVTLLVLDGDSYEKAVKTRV

T8: APBA2_1, Q99767
T8 sequence (Q99767 563-664, limits assumed, looked up): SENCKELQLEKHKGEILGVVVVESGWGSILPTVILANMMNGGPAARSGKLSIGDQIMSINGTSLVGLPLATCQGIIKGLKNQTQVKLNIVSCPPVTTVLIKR

T9: SNTG2, Q9NY99
T9 sequence (Q9NY99 68-166, limits assumed, looked up): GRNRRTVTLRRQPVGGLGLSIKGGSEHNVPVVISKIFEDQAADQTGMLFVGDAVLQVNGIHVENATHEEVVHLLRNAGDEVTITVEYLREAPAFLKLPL

T10: APBA1_2, Q02410
T10 sequence (Q02410 742-832, limits assumed, looked up): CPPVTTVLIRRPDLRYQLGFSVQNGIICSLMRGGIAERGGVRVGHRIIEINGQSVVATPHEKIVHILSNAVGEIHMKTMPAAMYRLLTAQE

B1: RNF146, Q9NTX7 (peptide)
chain: PDGQCTVTEV
B2: RASL11B, Q9BPW5 (peptide)
chain: SAKVRTVTSV
B3: TRMT13, Q9NUP7 (peptide)
chain: NHSSSPETTA
B4: CLDN1, O95832 (peptide)
chain: PAPSSGKDYV
B5: TRPV3, Q8NET8 (peptide)
chain: EVEEFPETSV

Columns and labels:
Assay in all cases: holdup assay
Set-up in all cases: key: below the threshold = too weak to quantify, mostly under pKd 3.1 to 4
Settings in all cases: plain residues with an end cap or a label only (N-terminal biotin on a linker: ado-ado)
PARD3_3, Q8TEW0 = target: PARD3_3, Q8TEW0
Sequence of PARD3_3, Q8TEW0 (Q8TEW0 582-685): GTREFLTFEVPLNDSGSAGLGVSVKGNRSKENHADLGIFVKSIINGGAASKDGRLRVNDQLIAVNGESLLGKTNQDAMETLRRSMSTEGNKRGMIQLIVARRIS

PTPN13_1, Q12923 = target: T1, PTPN13_1, Q12923
PDZRN3_1, Q9UPQ7 = target: T2, PDZRN3_1, Q9UPQ7
Inadl_2, Q8NI35 = target: Inadl_2, Q8NI35
Sequence of Inadl_2, Q8NI35 (Q8NI35 238-335): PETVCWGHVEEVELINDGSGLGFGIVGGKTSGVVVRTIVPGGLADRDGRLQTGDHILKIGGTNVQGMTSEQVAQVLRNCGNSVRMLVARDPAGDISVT

FRMPD2_2, Q68DX3 = target: FRMPD2_2, Q68DX3
Sequence of FRMPD2_2, Q68DX3 (Q68DX3 944-1038): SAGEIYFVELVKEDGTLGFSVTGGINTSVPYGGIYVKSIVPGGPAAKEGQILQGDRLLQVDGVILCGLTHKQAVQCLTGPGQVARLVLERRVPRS

PARD3B_1, Q8TEW8 = target: T3, PARD3B_1, Q8TEW8
TIAM2, Q8IVF5 = target: T4, TIAM2, Q8IVF5
FRMPD2_3, Q68DX3 = target: FRMPD2_3, Q68DX3
Sequence of FRMPD2_3, Q68DX3 (Q68DX3 1073-1166): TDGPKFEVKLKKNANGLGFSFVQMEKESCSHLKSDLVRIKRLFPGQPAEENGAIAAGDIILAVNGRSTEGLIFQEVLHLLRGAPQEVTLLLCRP

GRIP2_6, Q9C0E4 = target: GRIP2_6, Q9C0E4
Sequence of GRIP2_6, Q9C0E4 (Q9C0E4 648-740): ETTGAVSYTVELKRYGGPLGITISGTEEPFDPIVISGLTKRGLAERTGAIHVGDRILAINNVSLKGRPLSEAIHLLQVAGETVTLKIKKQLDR

GRIP2_5, Q9C0E4 = target: GRIP2_5, Q9C0E4
Sequence of GRIP2_5, Q9C0E4 (Q9C0E4 544-642): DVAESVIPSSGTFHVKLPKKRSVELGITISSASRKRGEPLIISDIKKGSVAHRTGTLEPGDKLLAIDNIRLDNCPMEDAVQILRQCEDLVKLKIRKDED

GRIP2_4, Q9C0E4 = target: GRIP2_4, Q9C0E4
Sequence of GRIP2_4, Q9C0E4 (Q9C0E4 446-548): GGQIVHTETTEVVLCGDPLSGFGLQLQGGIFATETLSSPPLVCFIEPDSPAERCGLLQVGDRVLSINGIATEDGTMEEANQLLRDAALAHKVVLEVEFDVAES

DLG3_3, Q92796 = target: T5, DLG3_3, Q92796
MPDZ_10, O75970 = target: T6, MPDZ_10, O75970
NHERF3_1, Q5T2W1 = target: T7, NHERF3_1, Q5T2W1
CASK, O14936 = target: CASK, O14936
Sequence of CASK, O14936 (O14936 487-570): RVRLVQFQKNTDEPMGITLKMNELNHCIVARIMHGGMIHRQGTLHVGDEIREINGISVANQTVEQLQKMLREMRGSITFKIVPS

LNX1_2, Q8TBB1 = target: LNX1_2, Q8TBB1
Sequence of LNX1_2, Q8TBB1 (Q8TBB1 371-470): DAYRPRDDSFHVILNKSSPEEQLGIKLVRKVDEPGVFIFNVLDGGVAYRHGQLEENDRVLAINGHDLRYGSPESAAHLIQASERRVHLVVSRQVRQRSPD

APBA2_1, Q99767 = target: T8, APBA2_1, Q99767
GORASP1, Q9BQQ3 = target: GORASP1, Q9BQQ3
Sequence of GORASP1, Q9BQQ3 (Q9BQQ3 1-208): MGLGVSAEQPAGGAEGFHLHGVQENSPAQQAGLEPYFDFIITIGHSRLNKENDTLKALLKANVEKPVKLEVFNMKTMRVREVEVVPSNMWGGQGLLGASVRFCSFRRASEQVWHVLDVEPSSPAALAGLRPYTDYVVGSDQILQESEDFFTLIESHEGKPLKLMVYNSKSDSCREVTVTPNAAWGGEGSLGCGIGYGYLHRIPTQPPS

GRIP2_3, Q9C0E4 = target: GRIP2_3, Q9C0E4
Sequence of GRIP2_3, Q9C0E4 (Q9C0E4 238-339): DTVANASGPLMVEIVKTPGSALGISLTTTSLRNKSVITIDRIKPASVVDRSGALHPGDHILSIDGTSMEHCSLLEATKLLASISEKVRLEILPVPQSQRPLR

MAGI1_1, Q96QZ7 = target: MAGI1_1, Q96QZ7
Sequence of MAGI1_1, Q96QZ7 (Q96QZ7 1-106): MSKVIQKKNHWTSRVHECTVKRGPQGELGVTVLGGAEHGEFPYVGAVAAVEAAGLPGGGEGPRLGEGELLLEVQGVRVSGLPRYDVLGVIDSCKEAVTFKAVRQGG

LAP2, Q96RT1 = target: LAP2, Q96RT1
Sequence of LAP2, Q96RT1 (Q96RT1 other isoform, or with tags, fused parts or gaps): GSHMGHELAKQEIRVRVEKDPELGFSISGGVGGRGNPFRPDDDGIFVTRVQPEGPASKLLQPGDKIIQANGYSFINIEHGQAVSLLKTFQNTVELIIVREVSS

LNX1_1, Q8TBB1 = target: LNX1_1, Q8TBB1
Sequence of LNX1_1, Q8TBB1 (Q8TBB1 261-371): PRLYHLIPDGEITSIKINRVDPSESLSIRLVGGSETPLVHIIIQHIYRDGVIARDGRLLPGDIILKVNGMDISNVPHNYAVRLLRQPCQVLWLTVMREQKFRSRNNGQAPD

SNTG2, Q9NY99 = target: T9, SNTG2, Q9NY99
TJP1_3, Q07157 = target: TJP1_3, Q07157
Sequence of TJP1_3, Q07157 (Q07157 416-512): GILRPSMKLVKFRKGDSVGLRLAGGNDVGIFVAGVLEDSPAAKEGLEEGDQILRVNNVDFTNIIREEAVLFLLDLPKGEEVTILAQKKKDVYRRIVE

NHERF2_2, Q15599 = target: NHERF2_2, Q15599
Sequence of NHERF2_2, Q15599 (Q15599 142-238): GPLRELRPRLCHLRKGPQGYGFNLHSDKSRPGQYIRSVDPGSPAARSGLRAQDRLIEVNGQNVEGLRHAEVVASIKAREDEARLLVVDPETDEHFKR

HTRA2, O43464 = target: HTRA2, O43464
Sequence of HTRA2, O43464 (O43464 355-458): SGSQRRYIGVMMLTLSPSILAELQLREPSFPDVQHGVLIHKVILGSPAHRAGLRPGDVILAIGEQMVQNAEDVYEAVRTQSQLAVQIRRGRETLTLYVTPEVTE

APBA1_2, Q02410 = target: T10, APBA1_2, Q02410

Binder | pKd (PARD3_3, Q8TEW0) | pKd (PTPN13_1, Q12923) | pKd (PDZRN3_1, Q9UPQ7) | pKd (Inadl_2, Q8NI35) | pKd (FRMPD2_2, Q68DX3) | pKd (PARD3B_1, Q8TEW8) | pKd (TIAM2, Q8IVF5) | pKd (FRMPD2_3, Q68DX3) | pKd (GRIP2_6, Q9C0E4) | pKd (GRIP2_5, Q9C0E4) | pKd (GRIP2_4, Q9C0E4) | pKd (DLG3_3, Q92796) | pKd (MPDZ_10, O75970) | pKd (NHERF3_1, Q5T2W1) | pKd (CASK, O14936) | pKd (LNX1_2, Q8TBB1) | pKd (APBA2_1, Q99767) | pKd (GORASP1, Q9BQQ3) | pKd (GRIP2_3, Q9C0E4) | pKd (MAGI1_1, Q96QZ7) | also measured
B1 | below the threshold | below the threshold | 3.5 | below the threshold | 4.44 | below the threshold | below the threshold | below the threshold | below the threshold | below the threshold | below the threshold | below the threshold | below the threshold | below the threshold | below the threshold | 3.99 | below the threshold | below the threshold | below the threshold | below the threshold | pKd (LAP2, Q96RT1): 4.22; pKd (LNX1_1, Q8TBB1): 4.12; pKd (SNTG2, Q9NY99): 3.98; pKd (TJP1_3, Q07157): below the threshold; pKd (NHERF2_2, Q15599): 3.89; pKd (HTRA2, O43464): below the threshold; pKd (APBA1_2, Q02410): 4.32
B2 | below the threshold | below the threshold | 3.71 | below the threshold | 3.97 | below the threshold | below the threshold | below the threshold | 3.63 | below the threshold | below the threshold | 4.89 | below the threshold | below the threshold | below the threshold | 3.92 | below the threshold | 3.76 | below the threshold | 3.52 | pKd (LAP2, Q96RT1): 3.66; pKd (LNX1_1, Q8TBB1): 4.04; pKd (SNTG2, Q9NY99): 3.6; pKd (TJP1_3, Q07157): below the threshold; pKd (NHERF2_2, Q15599): below the threshold; pKd (HTRA2, O43464): below the threshold; pKd (APBA1_2, Q02410): 3.92
B3 | below the threshold | below the threshold | below the threshold | below the threshold | below the threshold | below the threshold | 4.02 | below the threshold | below the threshold | below the threshold | below the threshold | below the threshold | below the threshold | below the threshold | below the threshold | below the threshold | below the threshold | below the threshold | below the threshold | below the threshold | pKd (LAP2, Q96RT1): below the threshold; pKd (LNX1_1, Q8TBB1): below the threshold; pKd (SNTG2, Q9NY99): below the threshold; pKd (TJP1_3, Q07157): below the threshold; pKd (NHERF2_2, Q15599): below the threshold; pKd (HTRA2, O43464): below the threshold; pKd (APBA1_2, Q02410): below the threshold
B4 | below the threshold | below the threshold | below the threshold | below the threshold | below the threshold | below the threshold | below the threshold | below the threshold | below the threshold | below the threshold | below the threshold | below the threshold | below the threshold | 4.08 | below the threshold | below the threshold | below the threshold | below the threshold | below the threshold | 3.55 | pKd (LAP2, Q96RT1): below the threshold; pKd (LNX1_1, Q8TBB1): below the threshold; pKd (SNTG2, Q9NY99): below the threshold; pKd (TJP1_3, Q07157): below the threshold; pKd (NHERF2_2, Q15599): below the threshold; pKd (HTRA2, O43464): below the threshold; pKd (APBA1_2, Q02410): 4.09
B5 | 3.85 | 3.58 | 4.91 | below the threshold | 5.16 | below the threshold | below the threshold | below the threshold | below the threshold | below the threshold | 3.55 | 4.54 | 3.56 | 4.47 | below the threshold | 3.59 | below the threshold | 3.54 | below the threshold | 3.63 | pKd (LAP2, Q96RT1): 4.93; pKd (LNX1_1, Q8TBB1): 4.19; pKd (SNTG2, Q9NY99): 5.05; pKd (TJP1_3, Q07157): 3.5; pKd (NHERF2_2, Q15599): 3.72; pKd (HTRA2, O43464): below the threshold; pKd (APBA1_2, Q02410): 4.33
